{"source": "patent US10532083B2", "about": "“Methods for inducing differentiation or conversion of white adipocytes and/or preadipocytes to brown adipocites using FGF8” (Technische Universität München, priority 2014, dated 2020)", "key": {"[1]": {"test_system": "visceral, epididymal white adipocytes", "test": "Ucp1 / brown adipocyte marker mRNA (qPCR) in immortalized epididymal white adipocytes treated with FGFs", "type": "cell-based, murine", "details": "for Induction of Ucp1 mRNA expression (browning potential), screening of paracrine FGFs and FGF8 spliceforms: epididymal adipocytes, six days of differentiation, FGF8a, b, e, f 25.0 ng/ml, FGF17 10.0 ng/ml", "protocol": "(§1) Screening paracrine FGFs for a browning potential. A, B—Screening of all paracrine FGFs in immortalized white adipocytes. Subcutaneous, inguinal and visceral, epididymal white adipocytes were grown to confluence in Dulbecco's modified Eagle's medium with 4.5 g/l glucose, supplemented with 20 nmol/l insulin, 1 nmol/l triiodothyronine, 20% fetal bovine serum, and penicillin/streptomycin. Upon reaching confluence, differentiation was induced with 500 mmol/l isobutylmethylxanthine, 250 mmol/l indomethacine, and 2 mg/ml dexamethasone for 24 hours. Subsequently, members of the paracrine FGF protein family were added to the medium for the following six days. The medium and the FGF indicated were changed every 48 hours. Untreated cells served as a negative control. At the end of the differentiation process total RNA was isolated using TRIzol reagents, RNA quality and concentration was measured by photometric analysis, and 5 μg of total RNA was reverse-transcribed to cDNA. Finally, quantitative analysis of UCP-1 mRNA expression was performed. A bar graph analysis including the SEM of 3 to 6 independent experiments is shown. […] B—Four different splicing forms of the Fgf8 gene were compared by quantifying Ucp1 mRNA expression in fully differentiated white adipocytes. UCP-1 mRNA abundance is shown in percent of the FGF8b value. Fgf8b and Fgf8f were able to increase expression in epididymal adipocytes. C—Illustration depicting the different exon usage that characterizes the FGF8 spliceforms a, b, e, and f.\n(§2) Dose dependency of Ffg8b action. A, B—Subcutaneous, inguinal and visceral, epididymal white adipocytes were grown to confluence in Dulbecco's modified Eagle's medium with 4.5 g/l glucose, supplemented with 20 nmol/l insulin, 1 nmol/l triiodothyronine, 20% fetal bovine serum, and penicillin/streptomycin. Upon reaching confluence, differentiation was induced with 500 mmol/l isobutylmethylxanthine, 250 mmol/l indomethacine, and 2 mg/ml dexamethasone for 24 hours. Subsequently, FGF8b in five indicated concentrations were added to the medium for the following six days. The medium and the FGF8b were changed every 48 hours. Untreated cells served as a negative control. At the end of the differentiation process total RNA was isolated using TRIzol reagents, RNA quality and concentration was measured by photometric analysis, and 5 μg of total RNA was reverse-transcribed to cDNA. Finally, quantitative analysis of UCP-1 mRNA expression was performed. FGF8b induces Ucp1 mRNA abundance in inguinal and epididymal adipocytes. Epididymal fat cells were more dose dependently responsive to Fgf8b treatment as compared to inguinal cells. The latter were responsive to FGF8b treatment above the threshold indicated. B—The absolute increase of several genes typical for brown fat cells.\n(§3) Treatment timecourse experiment. A, B—Subcutaneous, inguinal and visceral, epididymal white adipocytes were grown to confluence (prolif. denotes proliferation period) in Dulbecco's modified Eagle's medium with 4.5 g/l glucose, supplemented with 20 nmol/l insulin, 1 nmol/l triiodothyronine, 20% fetal bovine serum, and penicillin/streptomycin. Upon reaching confluence, differentiation was induced with 500 mmol/l isobutylmethylxanthine, 250 mmol/l indomethacine, and 2 mg/ml dexamethasone for 24 hours (induction). Subsequently, the cells were cultured for another six days (differentiation). At the end of the differentiation process total RNA was isolated using TRIzol reagents, RNA quality and concentration was measured by photometric analysis, and 5 μg of total RNA was reverse-transcribed to cDNA. Finally, quantitative analysis of UCP-1 mRNA expression was performed. Untreated cells served as a negative control. A bar graph analysis including the SEM of 5 independent experiments is shown. A—Epididymal fat cells were treated with FGF8b during different time windows as given by black squares indicating one day of treatment each. […]"}, "[2]": {"test_system": "subcutaneous, inguinal white adipocytes", "test": "Ucp1 / brown adipocyte marker mRNA (qPCR) in immortalized inguinal white adipocytes treated with FGFs", "type": "cell-based, murine", "protocol": "as §1, §2, §3"}}, "data": [{"molecule": "FGF8b: murine recombinant paracrine fibroblast growth factor 8, major spliceform b (R&D Systems); amino acid sequence identical to human, SEQ ID NO:16/20 (protein, human FGF8b) MGSPRSALSCLLLHLLVLCLQAQVTVQSSPNFTQHVREQSLVTDQLSRRLIRTYQLYSRTSGKHVQVLANKRINAMAEDGDPFAKLIVETDTFGSRVRVRGAETGLYICMNKKGKLIAKSNGKGKDCVFTEIVLENNYTALQNAKYEGWYMAFTRKGRPRKGSKTRQHQREVHFMKRLPRGHHTTEQSLRFEFLNYPPFTRSLRGSQRTWAPEPR", "values": [{"measurement": "Pgc1a mRNA", "setting": "[1]; continuous treatment during differentiation, fully differentiated adipocytes (FIG. 2B)", "result": "strongly downregulated"}, {"measurement": "Induction of Ucp1 mRNA expression (browning potential), screening of paracrine FGFs and FGF8 spliceforms", "setting": "[1]", "result": "increased expression of Ucp1 mRNA expression"}, {"measurement": "Induction of Ucp1 mRNA expression (browning potential), screening of paracrine FGFs and FGF8 spliceforms", "setting": "[1]; listed as Fgf8b", "result": "effective"}, {"measurement": "Ucp1 mRNA abundance, dose dependency", "setting": "[1]; epididymal cells, different concentrations during entire differentiation phase of 6 days", "result": "dose dependent manner"}, {"measurement": "Most effective concentration for Ucp1 induction", "setting": "[1]; epididymal cells, highest concentration tested, 6 days of differentiation", "result": 125, "unit": "ng/mL"}, {"measurement": "Final Ucp1 mRNA abundance after full differentiation", "setting": "[1]; epididymal cells, treatment during the induction period", "result": "inhibited Ucp1 induction"}, {"measurement": "Ucp1 mRNA abundance, induction", "setting": "[1]; fully differentiated epididymal cell line, treatment after induction for entire differentiation period of 6 days, screening concentration 25.0 ng/ml, untreated cells as control", "result": 27.4, "unit": "fold"}, {"measurement": "Ucp1 mRNA abundance, induction", "setting": "[2]; fully differentiated inguinal cell line, treatment after induction for entire differentiation period of 6 days, screening concentration 25.0 ng/ml, untreated cells as control", "result": 2.1, "unit": "fold"}, {"measurement": "Induction of Ucp1 mRNA expression (browning potential), screening of paracrine FGFs and FGF8 spliceforms", "setting": "[2]; inguinal adipocytes, six days of differentiation, FGF8a, b, e, f 25.0 ng/ml, FGF17 10.0 ng/ml", "result": "only isoform with browning potential"}, {"measurement": "Cidea mRNA abundance", "setting": "[2]; inguinal adipocytes, treatment during differentiation, smaller effect size than in epididymal", "result": "increased"}, {"measurement": "Ucp1 mRNA abundance, dose dependency", "setting": "[2]; inguinal cells, different concentrations during entire differentiation phase of 6 days", "result": "only the highest dose increased Ucp1 expression"}, {"measurement": "Most effective concentration for Ucp1 induction", "setting": "[2]; inguinal cells, highest concentration tested, 6 days of differentiation", "result": 125, "unit": "ng/mL"}, {"measurement": "Final Ucp1 mRNA abundance after full differentiation (responsiveness)", "setting": "[2]; inguinal cells, treatment during different days of proliferation, induction and/or differentiation", "result": "only responsive to FGF8b treatment in their fully differentiated state"}]}]}
